Reference: US20110213019, “Compositions and Methods for Treating Cancer, Inhibiting Proliferation, and Inducing Cell Death” (UNIVERSITY OF LOUISVILLE RESEARCH FOUNDATION, INC., published 2011)

What was measured:
alpha-enolase = alpha-enolase (UniProt P06733 P06733:2-434); experiment: EMSA; strong binding; supershifted by alpha-enolase polyclonal antibody; details: parallel G4
Excerpt: (§1) EMSAs were used to characterize the binding of α-enolase and MBP-1 to the c-myc quadruplex-forming sequence. […] The quadruplex oligonucleotide aptamer, GRO29A, competed for α-enolase and MBP-1 binding to PU27. […] A mutation in the PU27 sequence, which prevents quadruplex formation, abrogated binding of both α-enolase and MBP-1. MBP-1 also binds to a downstream site in the P2 promoter.

[1] = target: MBP-1 (alternative translation product of alpha-enolase) (UniProt P06733-2 P06733-2:1-341); experiment: as above; details: parallel G4
Excerpt: as §1

Sequence of alpha-enolase (P06733 2-434, one chain of several): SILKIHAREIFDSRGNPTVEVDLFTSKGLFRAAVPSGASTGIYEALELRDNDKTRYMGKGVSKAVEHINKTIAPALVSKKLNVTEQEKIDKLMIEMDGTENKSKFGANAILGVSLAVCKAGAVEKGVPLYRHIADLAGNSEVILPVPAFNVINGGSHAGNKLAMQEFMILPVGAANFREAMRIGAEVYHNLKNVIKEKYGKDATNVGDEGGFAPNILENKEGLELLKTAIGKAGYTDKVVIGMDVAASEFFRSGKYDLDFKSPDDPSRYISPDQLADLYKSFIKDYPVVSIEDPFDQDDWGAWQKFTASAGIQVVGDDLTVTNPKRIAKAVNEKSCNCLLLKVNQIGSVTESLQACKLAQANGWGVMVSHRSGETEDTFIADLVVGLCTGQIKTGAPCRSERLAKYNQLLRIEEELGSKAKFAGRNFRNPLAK
Sequence of MBP-1 (alternative translation product of alpha-enolase) (P06733 94-434, one chain of several): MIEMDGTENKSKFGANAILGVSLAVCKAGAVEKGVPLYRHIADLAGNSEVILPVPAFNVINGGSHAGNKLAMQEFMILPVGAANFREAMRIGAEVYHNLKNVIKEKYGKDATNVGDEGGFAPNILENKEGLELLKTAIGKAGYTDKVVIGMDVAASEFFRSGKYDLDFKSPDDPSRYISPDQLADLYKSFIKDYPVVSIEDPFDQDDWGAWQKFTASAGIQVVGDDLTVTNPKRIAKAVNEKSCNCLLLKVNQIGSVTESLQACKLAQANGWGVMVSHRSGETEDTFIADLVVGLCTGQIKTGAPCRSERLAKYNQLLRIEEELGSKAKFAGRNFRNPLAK

B1: PU27 (c-Myc promoter quadruplex) (structured_DNA)
DNA: TGGGGAGGGTGGGGAGGGTGGGGAAGG
- binding result (alpha-enolase): binds
- binding result [1]: binds
